The results in this text go back to paper PMC3303803, “Identification of the First Functional Toxin-Antitoxin System in Streptomyces” (PLoS ONE, 2012).

In data set [1] the test system is T1, YefM-His6sl (antitoxin);YoeB-His6sl (toxin) (Streptomyces lividans 1326?;Streptomyces lividans 1326?), ORF:ca022027+Q9Z4V8.
T1 sequence 1: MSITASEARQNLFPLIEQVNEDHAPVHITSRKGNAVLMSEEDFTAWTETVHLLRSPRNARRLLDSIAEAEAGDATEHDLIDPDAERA
T1 sequence 2: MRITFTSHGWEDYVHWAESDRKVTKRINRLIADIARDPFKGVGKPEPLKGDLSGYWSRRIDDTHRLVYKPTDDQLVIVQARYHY
Put plainly: EMSA.

Data set [2] has as its system T2, YefMsl-YoeBsl antitoxin (untagged YefM of natural complex);YoeB-His6sl (toxin) (Streptomyces lividans 1326?;Streptomyces lividans 1326?), ORF:ca022027+Q9Z4V8.
T2 sequence 1: T1 sequence 1
T2 sequence 2: T1 sequence 2
In words: EMSA. (In EMSA bound probe runs differently from free probe, usually more slowly.)

Data set [3] has as its target T3, S. lividans antitoxin YefM-His6sl (Streptomyces lividans, UniProt Q9Z4V7 1-87).
T3 construct: YefMsl, putative antitoxin of the yefM/yoeBsl operon of Streptomyces lividans 1326; identical to S. coelicolor SCO2235 (YefMsc); 9.7 kDa; Cloned with primers LS-005/LS-022 between NdeI and XhoI of pET22b; also called YefMsl; source: E. coli BL21 (DE3), pET22b-Anti, purified (NTA-Ni, dialysis); not shown: His6, C-terminal, kept
T3 sequence (looked up): T1 sequence 1
In words: native gel or EMSA. The following applies: both partners purified.

Take “TTTTTTCATATGACCAGTGCCTCCCTTCCTCGGCTGGTACAAGATATCGTACGAGTCTGGGACGGTCCACCGGAAAGCGGGAGCGGTACGTCCCGGCGCCCGCACGCCGTTCCCCGGCTACGCTCAGCCCGTACGACCTTGATCCGACCGGGCCCACGTGCCCCGCAGCCCGACAGGAGGCCGAGAATTCAAAAAA (double strand) [TA promoter (yefM/yoeBsl intergenic region)]”: the binding entry in data set [1] and in data set [2] was “binds” each time.

B1: S. lividans toxin YoeB-His6sl (natural protein, Streptomyces lividans, UniProt Q9Z4V8 1-84, looked up)
chain: T1 sequence 2
notes: also called YoeBsl; toxin-His6; not shown: His6, C-terminal, kept
In the case of B1, the binding result in data set [3] is reported as “binds”.
